Measured values reported in publication PMC9464890, “Exosite binding modulates the specificity of the immunomodulatory enzyme ScpA, a C5a inactivating bacterial protease” (Computational and Structural Biotechnology Journal, 2022).
Residue numbers refer to the chain shown, from its start. In names and notes the source's numbering stands.

B1: ScpA_(S512A) (enzyme)
chain: ANTVTEDTPVTEQAVETPQPTAVSEEVPSSKETKTPQTPDDAEETIADDANDLAPQAPAKTADTPATSKATIRDLNDPSQVKTLQEKAGKGAGTVVAVIDAGFDKNHEAWRLTDKTKARYQSKEDLEKAKKEHGITYGEWVNDKVAYYHDYSKDGKTAVDQEHGTHVSGILSGNAPSETKEPYRLEGAMPEAQLLLMRVEIVNGLADYARNYAQAIRDAVNLGAKVINMSFGNAALAYANLPDETKKAFDYAKSKGVSIVTSAGNDSSFGGKTRLPLADHPDYGVVGTPAAADSTLTVASYSPDKQLTETAMVKTDDQQDKEMPVLSTNRFEPNKAYDYAYANRGMKEDDFKDVKGKIALIERGDIDFKDKVANAKKAGAVGVLIYDNQDKGFPIELPNVDQMPAAFISRKDGLLLKDNPQKTITFNATPKVLPTASGTKLSRFSSWGLTADGNIKPDIAAPGQDILSSVANNKYAKLSGTAMSAPLVAGIMGLLQKQYETQYPDMTPSERLDLAKKVLMSSATALYDEDEKAYFSPRQQGAGAVDAKKASAATMYVTDKDNTSSKVHLNNVSDKFEVTVTVHNKSDKPQELYYQATVQTDKVDGKHFALAPKVLYEASWQKITIPANSSKQVTVPIDASRFSKDLLAQMKNGYFLEGFVRFKQDPTKEELMSIPYIGFRGDFGNLSAVEKPIYDSKDGSSYYHEANSDAKDQLDGDGLQFYALKNNFTALTTESNPWTIIKAVKEGVENIEDIESSEITETIFAGTFAKQDDDSHYYIHRHANGEPYAAISPNGDGNRDYVQFQGTFLRNAKNLVAEVLDKEGNVVWTSEVTEQVVKNYNNDLASTLGSTRFEKTRWDGKDKDGKVVANGTYTYRVRYTPISSGAKEQHTDFDVIVDNTTPEVATSATFSTEDRRLTLASKPKTSQPVYRERIAYTYMDEDLPTTEYISPNEDGTFTLPEEAETMEGATVPLKMSDFTYVVEDMAGNITYTPVTKLLEGHS
B2: ScpA_(S512A,E864A) (enzyme)
chain: B1 chain with E834A
B3: ScpA_(S512A,D889A) (enzyme)
chain: B1 chain with D859A
B4: Fn123 (domain or fragment)
chain: ADDANDLAPQAPAKTADTPATSKATIRDLNDPSQVKTLQEKAGKGAGTVVAVIDAGFDKNHEAWRLTDKTKARYQSKEDLEKAKKEHGITYGEWVNDKVAYYHDYSKDGKTAVDQEHGTHVSGILSGNAPSETKEPYRLEGAMPEAQLLLMRVEIVNGLADYARNYAQAIRDAVNLGAKVINMSFGNAALAYANLPDETKKAFDYAKSKGVSIVTSAGNDSSFGGKTRLPLADHPDYGVVGTPAAADSTLTVASYSPDKQLTETAMVKTDDQQDKEMPVLSTNRFEPNKAYDYAYANRGMKEDDFKDVKGKIALIERGDIDFKDKVANAKKAGAVGVLIYDNQDKGFPIELPNVDQMPAAFISRKDGLLLKDNPQKTITFNATPKVLPTASGTKLSRFSSWGLTADGNIKPDIAAPGQDILSSVANNKYAKLSGTSMSAPLVAGIMGLLQKQYETQYPDMTPSERLDLAKKVLMSSATALYDEDEKAYFSPRQQGAGAVDAKKASAATMYVTDKDNTSSKVHLNNVSDKFEVTVTVHNKSDKPQELYYQATVQTDKVDGKHFALAPKVLYEASWQKITIPANSSKQVTVPIDASRFSKDLLAQMKNGYFLEGFVRFKQDPTKEELMSIPYIGFRGDFGNLSAVEKPIYDSKDGSSYYHEANSDAKDQLDGDGLQFYALKNNFTALTTESNPWTIIKAVKEGVENIEDIESSEITETIFAGTFAKQDDDSHYYIHRHANGEPYAAISPNGDGNRDYVQFQGTFLRNAKNLVAEVLDKEGNVVWTSEVTEQVVKNYNNDLASTLGSTRFEKTRWDGKDKDGKVVANGTYTYRVRYTPISSGAKEQHTDFDVIVDNTTPEVATSATFSTEDRRLTLASKPKTSQPVYRERIAYTYMDEDLPTTEYISPNEDGTFTLPEEAETMEGATVPLKMSDFTYVVEDMAGNITYTPVTKLLEGHS

Legend:
[1] = molecular target: C5a (Homo sapiens) (UniProt P01031); assay: SPR; conditions: cited from earlier work
[2] = molecular target: R46A_(core) (human); assay: SPR; BIAcore X100, NTA sensor chip with about 20-25 RU of immobilised His-tagged C5a form (ligand), ScpA form flowed as ligate at 30 uL/min, 25 °C, 10 mM Hepes-KOH pH 7.4, 150 mM NaCl, 0.005% Tween 20, 50 uM EDTA; global fit, 1:1 Langmuir model with drifting baseline; triplicate
[3] = molecular target: R40A_(core) (human); assay: as above
[4] = molecular target: rhC5a_(core) (human); assay: as above
[5] = molecular target: rhC5a_(R40A) (human); assay: as above
[6] = molecular target: rhC5a_(R46A) (human); assay: as above
[7] = molecular target: rhC5a_(R37A) (human); assay: as above
[8] = molecular target: R37A_(core) (human); assay: as above
[9] = molecular target: T1, ScpAΔFn123 (Streptococcus pyogenes) (UniProt P15926)
T1 sequence: B4 chain

Chain of C5a (Homo sapiens) (P01031 678-751): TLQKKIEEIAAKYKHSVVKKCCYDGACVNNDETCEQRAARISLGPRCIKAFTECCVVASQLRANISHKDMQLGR

Molecule	Kd [2] [nM]	koff [2] [s⁻¹]	kon [2] [M⁻¹ s⁻¹]	Kd [3] [nM]	koff [3] [s⁻¹]	kon [3] [M⁻¹ s⁻¹]	Kd [4] [nM]	koff [4] [s⁻¹]	kon [4] [M⁻¹ s⁻¹]	Kd [5] [nM]	koff [5] [s⁻¹]	kon [5] [M⁻¹ s⁻¹]	Kd [6] [nM]	koff [6] [s⁻¹]	kon [6] [M⁻¹ s⁻¹]	Kd [7] [nM]	koff [7] [s⁻¹]	kon [7] [M⁻¹ s⁻¹]	Kd [8] [nM]	koff [8] [s⁻¹]	other results
ScpA (from UniProt P58099)																					Kd [1]: 35 nM
B1	691	0.0152	22000	1340	0.0258	19300	170	0.0075	45000	290	0.0274	94400	220	0.0226	103000	217	0.0176	81200	453	0.0151	kon [8]: 33300 M⁻¹ s⁻¹
B2	624	0.0132	21200	751	0.0195	26100	88.7	0.00438	49300	346	0.0271	78500	62.1	0.0213	344000	67.1	0.0101	150000	532	0.0121	kon [8]: 22800 M⁻¹ s⁻¹
B3	965	0.0121	12500	734	0.0182	24800	90	0.004	44400	94.9	0.0259	273000	86.6	0.0129	148000	68.3	0.00934	137000	384	0.0115	kon [8]: 30100 M⁻¹ s⁻¹
B4																					C5a-ase activity of ScpAΔFn123 complemented with Fn123, end-point assay, relative to the wild-type enzyme (data not shown) [9]: 0.1%
